# B1: J-domain of P. falciparum Hsp40 cochaperone PFA0660w (PFA0660wJ), aa 81-148 (domain or fragment, UniProt Q8I2E1 81-148, looked up)
# chain: MDYYTLLGVDKGCSEDDLRRAYLKLAMKWHPDKHVNKGSKVEAEEKFKNICEAYSVLSDNEKRVKYDL
# notes: PFA0660w, P. falciparum, pf3d7_0113700, UniProt Q8I2E1, J-domain aa 81-148; codon-optimized synthetic DNA; 15N-labelled (or 13C,15N-labelled) in the NMR assays; unlabelled in the ATP hydrolysis assays; also called PFA0660w J-domain; not shown: His6, N-terminal, cleaved
# Assays:
# [1] = target: Plasmodium falciparum Hsp70-x (PfHsp70-x), full-length construct aa 25-679 (P. falciparum, UniProt K7NTP5 25-679); assay: cell-based or functional assay
# [2] = target: T1, human heat shock cognate protein 70 (Hsc70), full length (human, UniProt P11142 1-646); assay: NMR titration; 15N-labelled PFA0660wJ titrated with unlabelled chaperone; HSQC peak intensity changes; 25°C; 20 mM sodium phosphate pH 7.4, 150 mM NaCl, 2 mM DTT; conditions: both partners purified
# T1 construct: also called HSPA8; heat shock protein family A (hspa) member 8
# T1 sequence (P11142 whole entry): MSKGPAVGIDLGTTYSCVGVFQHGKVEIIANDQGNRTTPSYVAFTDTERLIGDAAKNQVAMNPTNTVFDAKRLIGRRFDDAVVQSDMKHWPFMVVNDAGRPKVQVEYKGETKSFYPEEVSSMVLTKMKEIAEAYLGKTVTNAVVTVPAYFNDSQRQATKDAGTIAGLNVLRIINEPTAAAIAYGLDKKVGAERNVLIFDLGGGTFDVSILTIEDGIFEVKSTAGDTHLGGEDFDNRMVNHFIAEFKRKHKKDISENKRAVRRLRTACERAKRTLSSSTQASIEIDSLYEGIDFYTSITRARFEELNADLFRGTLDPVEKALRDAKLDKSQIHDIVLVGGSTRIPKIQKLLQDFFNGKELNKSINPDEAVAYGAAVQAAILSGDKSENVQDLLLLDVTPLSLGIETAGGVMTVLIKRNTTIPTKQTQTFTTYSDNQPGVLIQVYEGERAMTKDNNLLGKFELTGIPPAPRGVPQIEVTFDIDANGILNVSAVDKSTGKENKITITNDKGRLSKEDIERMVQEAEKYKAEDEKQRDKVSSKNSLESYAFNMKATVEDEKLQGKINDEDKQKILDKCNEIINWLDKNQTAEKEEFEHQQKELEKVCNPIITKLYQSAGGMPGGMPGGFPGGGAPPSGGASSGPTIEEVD
binder,measurement,setting,value
B1,fold change in ATP hydrolysis activity of PfHsp70-x upon titration of the J-domain (5 μM chaperone),[1],~2 fold
same,binding result,[2],binds

# Source: article PMC6894070, “The Plasmodium falciparum Hsp70-x chaperone assists the heat stress response of the malaria parasite” (The FASEB Journal, 2019)
